Test results published in the supplement of paper PMC9170038.

Assays:
MS2 coat protein [1] = assay: apparent KD of MS2 coat protein; higher = weaker reporter binding; settings: Eterna round: R101
Method: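 RNA-MaP: designed FMN/MS2 RNA switches (84 nt design region) are transcribed on-chip within common flanks and titrated with SNAP-549-labelled MS2 coat protein (about 1-3000 nM) in 100 mM Tris pH 7.5, 80 mM KCl, 4 mM MgCl2, without or with 200 uM FMN. Median apparent KD per design; activation ratio = KD,OFF / KD,ON.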

MS2 coat protein [2] = assay: apparent KD of MS2 coat protein, switch OFF state (with FMN for OFF switches, without FMN for ON switches); designed switch direction (-1 OFF switch, 1 ON switch): 1; higher = weaker reporter binding; settings: FMN input: 0 or 200 uM; Eterna round: R93 (includes R88 designs)
Outline: (§1)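 With or without constant ligand, designed RNA switches in 100 mM Tris-HCl pH 7.5, 80 mM KCl and 4 mM MgCl2 were titrated with SNAP-549-labelled MS2 coat protein. Concentrations went up in twofold steps from 0.7 or 1.5 nM to 3 µM. The switches had been transcribed on-chip from Illumina sequencing clusters, and apparent KD is the per-design median of normalised cluster binding-curve fits.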

MS2 coat protein [3] = assay: apparent KD of MS2 coat protein, switch ON state; designed switch direction (-1 OFF switch, 1 ON switch): 1; higher = weaker reporter binding; settings: FMN input: 0 or 200 uM; Eterna round: R93 (includes R88 designs)
Outline: as §1

| Sequence | apparent KD of MS2 coat protein (MS2 coat protein [1]; input ligand: FMN 200 uM) | apparent KD of MS2 coat protein (MS2 coat protein [1]; input ligand: none) | apparent KD of MS2 coat protein (MS2 coat protein [2]) | apparent KD of MS2 coat protein (MS2 coat protein [3]) |
| --- | --- | --- | --- | --- |
| UAUAACGAAAGAGGAUAUAUCGGCCGUCUACGGAUAGAAGGCUUUCGCUAUGGCACUGAUGAUCUACAUGAGGAUCACCCAUGU [EternaBot731] (puzzle (switch architecture): Exclusion NG 1) | 7.18 nM | – | – | – |
| UAUUCUUUGUUAGGAUAUGGGCCCACCCACCCACAAAGUGGGUGGGUGGGCCCAGAAGGAACAUGAGGAUCACCCAUGUAGGAA [#Aaaddddeeeeeeennnniiiinneeeee!] (puzzle (switch architecture): Small Loop Exclusion NG 1) | 53.1 nM | 11.7 nM | – | – |
| AGAGCUGCUCAGAAGGAGGAUCACCCUUUCGAAAGAAAGACGGAGGCUGAAAAGCCUCCGAAAUUCUAGGAUAUGAGCAGCUCA [#SharedSequence - IExNG2: 1] (puzzle (switch architecture): Inverted Exclusion NG 2) | 411 nM | 204 nM | – | – |
| UUAUUAUAUGUAGGAUAUGCAUAUUAUUACUGUGCAGAAGGACAUGAGGAUCACCCAUGUAUAUUAUUAUUAUAUAUUAUAUAU (puzzle (switch architecture): Exclusion NG 1) | 20.6 nM | 17.2 nM | – | – |
| GACUGCAGGAUAACAACCUGCAGUCACUUCUGAGGAUCACCCAGAAGGGCUGAGGUAAUACCUCAGCAGGAUAUGGAGUGAAAA [#SharedSequence IExNG# - 5] (puzzle (switch architecture): Inverted Exclusion NG 3) | 141 nM | 64.3 nM | – | – |
| CGCUAUGACAUGAGGAUCACCCAUGUAUACAUGGGAAUGACGUAGGAUAUGCAGAAGAUUAAAGUGCAGAAGGACGGCUUAGCG [JR #DistanceClose #Static #NP SSNG3 Sub064] (puzzle (switch architecture): Same State NG 3) | 1020 nM | 830 nM | – | – |
| GGAGAUACAUGAGGAUCACCCAUGUAGGAUAUCGGGCCCAUAUCCGGCGAAAGCCGGAUAUGGGCCGAGAAGGGCGUACACACC [#LOL-6] (puzzle (switch architecture): Small Loop Exclusion NG 3) | 7.58 nM | 8.68 nM | – | – |
| ACACGUCGUGAGAAGGAGGAUCACCCUUUCGAAAGAAAUAGCCACCGUGAAAACGGUGGCAAAUCUUAGGAUAUCACGACGUGA [#SharedSequence - IExNG2: 5] (puzzle (switch architecture): Inverted Exclusion NG 2) | 189 nM | 189 nM | – | – |
| ACACAUGAGGAUCACCCAUGUAGCUGGCGUCUGCGCCAGCCACAGGAUAUACGGUAACACAAACCGUAGAAGGGUGAUAAACAC [Inerre] (puzzle (switch architecture): Same State NG 3) | 54.5 nM | 113 nM | – | – |
| AGGUAUACUUAGAAGGGCUCCAGCAAAGCUGGAGCAGGAUAUGAGGAUCACCCAUGUCACCUGACGGUCGAAACGACCGUCAGG [#SharedSequence - IExNG1: 9-1] (puzzle (switch architecture): Inverted Exclusion NG 1) | 76.4 nM | 22.8 nM | – | – |
| AAUAAUCUUUAAGGAUAUCAGUGGCAAAGCCACUGAGAAGGUGAGGAUCACCCAUCUACGUGACCCUGGAAACAGGGUCACGAA [#SharedSequence - ExNG1-12] (puzzle (switch architecture): Exclusion NG 1) | 84.6 nM | 66.7 nM | – | – |
| GGUACUCAAAGAGUACCAAUACGAACAUGAGGAUCACCCAUGUAGGAUAUGCUACUCAAAGAGUAGCAGAAGGACAUGUGUCUA [jl-ex3-3.01 #GC_VS_GU_SWITCHING] (puzzle (switch architecture): Exclusion NG 3) | 55.5 nM | 13.9 nM | – | – |
| AGGAGGAAUGUAGGAUAUAUAUAUAUAUAUAGACAAAGUGUAUAUAUAUAUAUAGAAGGACAUGAGGAUCACCCAUGUUUCCCU [#Lowering the energy 13] (puzzle (switch architecture): Small Loop Exclusion NG 1) | 6.87 nM | 8.11 nM | – | – |
| AGGUAUACUUAGAAGGGCUCCAGCAAAGCUGGAGCAGGAUAUGAGGAUCACCCAUAUCACCUGACGGUCGAAACGACCGUCAGG [#SharedSequence - IExNG1: 8-1] (puzzle (switch architecture): Inverted Exclusion NG 1) | 26.8 nM | 13.2 nM | – | – |
| GGAAUAAAUGCAGGAUAUACGUGGAAAGCCCUCAACAUGAGGAUCACCCAUGUAGAAGGGCAUCUCCCGACCGAAGCGGAUCUC [Laisraus] (puzzle (switch architecture): Small Loop Exclusion NG 1) | 4.83 nM | – | – | – |
| GGUCGACUUCAAGGAUAUGGACUGCUUUGCAGUCCAGAAGGUGAGGAUCACCCACCUACGGUCAGGUUUCUGACCGAUCGACCU [#AddUracilToBrourdLoops 4 - Jieux - Exclusion NG1] (puzzle (switch architecture): Exclusion NG 1) | 8.62 nM | 7.94 nM | – | – |
| CGGAAGGAGAGAGAGGAUAUCCAAAGGAAAACAUGAGGAUCACCCAUGUAGAAGGUAGGAAAUUGGGAGAAGGCUCAAGAGAUAG [salish99-ss2-124] | – | – | 39.1 nM | 20.6 nM |
| AGGAAACAUGAGGAUCACCCAUGUAAGAUAAACACAGGAUAUGCGAAAAGAAACAAAGAAGCAGAAGGGUGGAGAA [75%, Ex5 sub 1, 3] | – | – | 25.1 nM | 19.4 nM |

| Sequence | apparent KD of MS2 coat protein (MS2 coat protein [1]; input ligand: FMN 200 uM) | apparent KD of MS2 coat protein (MS2 coat protein [1]; input ligand: none) | apparent KD of MS2 coat protein (MS2 coat protein [2]) | apparent KD of MS2 coat protein (MS2 coat protein [3]) |
| --- | --- | --- | --- | --- |
| GAGAUACAUGAGGAUCACCCAUGUUGAUACAUGGGAGGAUAUACAAGGUCGAAAGAUAAGGUAGAAGGCCUAAAAG [LROPPY Same State 1 - v04_deltaG=3.5] | – | – | 15.7 nM | 47.1 nM |
| GAAAAACAUGAGGAUCACCCAUGUGUAAAUAUGGGAGGAUAUACAAAGACGUAAGUCAAAGUAGAAGGCCUAAAAG [Mat - Same State 1 - Eli mod - D12] | – | – | 95.1 nM | 29.9 nM |
| AUAAAAUAAAGUCAGGAUAUCUAUAAUAAAACAUGAGGAUCACCCAUGUUAAAAAAAAGAUCAUGGGAGAAGGGACAAAAUAAAU [SS2 M 32] | – | – | 28.3 nM | 27 nM |
| AAAAAACAUGAGGAUCACCCAUGUAAUAAAACGUCAGGAUAUUGAUUUUAUUAUUUAUUACAAGAAGGGACAAAAA [Same State 1 - Omei 1] | – | – | 55 nM | 35 nM |
| AAAGAAAAACUAGAGGAUAUCCGAGUGGUAACAUGAGGAUCACCCAUGUGACGAAAGGAACAUGAGGAGAAGGCUAGAAGAAAAA [JL Nando mod 9] | – | – | 315 nM | 46.3 nM |
| AGAAAGAAAAGAGAGGAUAUCUAAAAGAAAACAUGAGGAUCACCCAUGUAAAAGAAAAGAAAAUGGGAGAAGGCUUAUGAGAAAG [JL Skelter Mod 8 In the Red] | – | – | 82 nM | 107 nM |
| AACAUACAUGAGGAUCACCCAUGUUCCGGCAGGACAGGAUAUACAUCGAAAGUGUUAUAAGUAGAAGGGUCAUAAA [JR_SS001_Sub012] | – | – | 66.5 nM | 56.7 nM |
| AGAAGACAUGAGGAUCACCCAUGUGGGAUUAUGGGAGGAUAUACAAAGACGAGAGUCAGAGUAGAAGGCCUAGGAA [salish99-ss1-112(!!!!!)] | – | – | 70.5 nM | 29 nM |
| AAAAAACAUGAGGAUCACCCAUGUAAAAAAACAUGAGGAUAUAUAAAAAAAAAAAAAAAGAUAGAAGGCAUAAAUA [JR_SS001_Sub1201] | – | – | 77.4 nM | 128 nM |
| AAAAAACAUGAGGAUCACCCAUGUCUUCGGACGUGAGGAUAUGUACAGACUUCGGUCUGUACAGAAGGCAUGUAAA [SS1 - 1052] | – | – | 186 nM | 286 nM |
| GGGAGGAAGAGAGAGGAUAUCCAAAGGAAAACAUGAGGAUCACCCAUGUAAAAGGUAGGAAAUUGGGAGAAGGCUCAAGAGAACG [salish99-ss2-056] | – | – | 28.9 nM | 25.5 nM |
| GGCUGCAAUUAUGAGGAUAUGUUCGGAUGAACAUGAGGAUCACCCAUGUGGCGAUAGCUAUCUGUGCAGAAGGUGUAGUGGUAGC [Edlexete] | – | – | 130 nM | 38.8 nM |
| GAGGACCUAGGAUAGGAUAUGUGAAUAAUUACAUGAGGAUCACCCAUGUCCAUUUAUAUGGGAACAUAGAAGGGUUCUGGUUAUC [SameState2 Malc#38] | – | – | 71.9 nM | 51.8 nM |
| AAAUAAAUGACUGAGGAUAUAUCGAUGAGUACAUGAGGAUCACCCAUGUGUUAAUAAAAAGGGUGGUAGAAGGUAGUCAACAAAC [Mod 15 of Pariah 4 by Hyphema in Round 1] | – | – | 51.2 nM | 112 nM |
| AUACGUACGUAUGAGGAUAUCCAUAAUAAGACAUGAGGAUCACCCAUGUAAACAAAACAAUAAUGGGAGAAGGCAUACGUACGAU [SS 2 M 50] | – | – | 54.8 nM | 47.7 nM |
| AAACUGGAGGACAAGGAUAUGUGCUCUACGACAUGAGGAUCACCCAUGUGAGACGUAGUAGUGAAACAGAAGGUGUCCUAUUGUA [Tiarri] | – | – | 20.4 nM | 11 nM |
| AAAUAAAGGACUAAGGAUAUAUCACAUGAAACAUGAGGAUCACCCAUGUAAUAAUACAAAGGGUGAUAGAAGGUAGUCCACAAACA [Pariah 5 (MS2 Riboswitches - Same State 2)] | – | – | 37.1 nM | 14.9 nM |
